Data reported in publication PMC3487758, “Fibrillin-1 Mutations Causing Weill-Marchesani Syndrome and Acromicric and Geleophysic Dysplasias Disrupt Heparan Sulfate Interactions” (PLoS ONE, 2012).

Target: the molecule itself
Experiment: SEC-MALS; MALLS on each separated gel filtration peak; Wyatt EOS 18-angle light scattering detector, Optilab r-EX refractometer

B1: Fibrillin-1 fragment PF17-1 WMS (Weill-Marchesani syndrome deletion mutant) (domain or fragment)
chain: not shown
notes: human fibrillin-1, fragment PF17-1 (exons 30-43, residues 1238-1807) with the 8 amino acid deletion in TB5 found in patients with WMS; Purifies as a monomer (86%) and a disulfide-linked dimer (14%); the deletion removes Cys 1695; also called WMS mutant
stoichiometry N: 2
